Source: a protein production outcome set (Wang et al. 2014)

Assay: label from the status in PepcDB records

MTSTSITAVEYQSKRLESRLLKETREYVIALPEGYAQSLEAYPVVYLLDGEDQFDHMASLLQFLSQGTMPQIPKVIIVGIHNTNRMRDYTPTHTLVLPSGNKGNPQYQHTGGAGRFLDFIEKELAPSIESQLRTNGINVLVGHSFGGLVAMEALRTDRPLFSAYLALDTSLWFDSPHYLTLLEERVVKGDFKQKQLFMAIANNPLSPGFGVSSYHKDLNLAFADKLTKLAPKGLGFMAKYYPEETHQSVSHIGLYDGIRHLFKDFAIDIYSDSFSKQQVIDQYGVLSERFGHKVTPSQQYLEQLIQYSDRQQLTERKQMLEGLRQHFAKD
protein production: not failed

MKVNILMATYNGEKFLAQQIESIQKQTFKEWNLLIRDDGSSDKTCDIIRNFTAKDSRIRFINENEHHNLGVIKSFFTLVNYEVADFYFFSDQDDVWLPEKLSVSLEAAKHKASDVPLLVYTDLKVVNQELNILQDSMIRAQSHHANTTLLPELTENTVTGGTMMINHALAEKWFTPNDILMHDWFLALLAASLGEIIYLDLPTQLYRQHDNNVLGARTMDKRFKILREGPKSIFTRYWKLIHDSQKQASLIVDKYGDIMTANDLELIKCFIKIDKQPFMTRLRWLWKYGYSKNQFKHQVVFKWLIATNYYNKRLEHHHHHH
protein production: not failed

MPERRTVALVTLGCARNEVDSEELAGRLEADGWQLVEDAEDADVAVVNTCGFVEAAKKDSVDALLEANDLKGHGRTQAVVAVGCMAERYGKELAEALPEADGVLGFDDYTNISDRLQTILNGGIHAAHTPRDRRKLLPISPAERQSAGADVALPGHGAPEGLPEDLPEGLAPESGPRAPLRRRLDGSPVASVKLASGCDRRCSFCAIPSFRGSFISRRPSDVLGETRWLAEQGVKEVMLVSENNTSYGKDLGDIRLLETLLPELAEVDGIERVRVSYLQPAEMRPGLIDVLTSTPKIAPYFDLSFQHSAPDVLRAMRRFGDTDRFLELLDTIRSKAPQAGVRSNFIVGFPGETEADLAELERFLTGARLDAIGVFGYSDEEGTEAATYGHKLDEDVVAARLARVSRLAEELVAQRAEERVGETVHVLVESIDDEEGAVGRAEHQAPETDGQVLFTSGEGLTVGRMVEAKVVGTEGVDLVAEPLPGSLVCTEEAGR
protein production: failed

MASSSSTYRSSSSSDGGNNNPSDSVVTVDERKRKRMLSNRESARRSRMRKQKHVDDLTAQINQLSNDNRQILNSLTVTSQLYMKIQAENSVLTAQMEELSTRLQSLNEIVDLVQSNGAGFGVDQIDGCGFDDRTVGIDGYYDDMNMMSNVNHWGGSVYTNQPIMANDINMY
protein production: failed

MATSGTYVTEVPLKGSAKNHYKRWKSENQLFPDAIGHHIQGVTVHEGDWDSHGAIKSWNYTCDGKQEVFKEKRELDDQKMAVTFRGLDGHVMEQLKVYDVIFQFVPKSQEGCVCKVTMFWEKRYEDSPEPIKYMKFVTSLAADMDDHILKNQSKA
protein production: failed

MCLSIPSQVVAVDNERQSVTVDTLGVRRDVSSHLMTEPLAIGDYVLIHIGFVMNKIDRNDALQSLELYQEIVSKLENETTH
protein production: not failed

MGFHLRGNNDFAFKRLYINLPQNSQMRAQLRRLIDNGSDTVVVSDKQDADAFLDVLSENRVKTISSLTPQGVVREYRITYRFSFQLRDAHDNLLIPPSEITLFRDLSYNETQVLAKDYEEAALYRDMQGDIVNQLVRRLASVRLPSLEHHHHHH
protein production: not failed

MRILAFPYTHTLSHLSRVLAVALELRRMGHEVVFAGESAKVSFVSQQGFDVVPIHEPDPEMLFGNIRSGKLRFVEDAELLQMLTADIEVIRSLKPDLVLSDGRFSAPLSTHLTNVRHAAIVNASSTEYRALPYVPFFDWMPPWLISRDAMIWKALVRLNLFLEMKLFDNVMKVFKRLSRELNTNRTVTATNCLTGKDITLLADIPEYFPSRNLPASYHYVGPLTWKSVLAPPAWWPLDIPSSPLVYVTMGTTGVSEFFSKLGPSLSTSFFSSIVTTGGQSSELKPMPGKVYVESYLDGDLVMERSDVVICHGGNGTIYQALSHGKPVIGIPTIPDQKFNMRRVEAMGFGKSLDLKQFLEKPSLLADTVKQVLSDHSFRNSAQKIQAVLKSYNAATTSAKILIDSILLEHHHHHH
protein production: failed

MPGTVSPAPSLQSTTARICPSIRRPTMSRFGALRLPLAVCLAVLLTIASGPARAQPADAPLDEADYGQWERLGGATLSPEGTWMATPIRRVNGNHELRIHHTRRDTTRTVAFGRSPAFSADGQWLAYSIGMSEERRKKRRKQEKPVRRRLGLLNLATGDTTVVPAVSGFAFSDGGRYLAMRRYPPQEAPDDLRGADLLVRDLEAETYTSFGNVADMAWQHEAPHLALTIDGRTETGNGVRLYDAATGRLQTLASTPGDYTGLSWRPAEDDLAALRARDSDDWQHETHVVLAWTGVNDGAPERRQFDPATAGAFPDSLRIVDHRTPAWATERERLFFGVQKREAVAPDTAQADSAAADSLEDYGPAGVKVWHTSDVEIIPRQEVQAEQDREDNYLTAWHLGRSGEAHWTRLGTELTEDVQVLHGGARAVGLDQTPYREERMFGPVYHDLYAIDVATGEREQVAEKVQFFEGPSANGRYLLWLKNDQYHAYDLQQETTNTITADVPVPVVDVDDDHTVEQKPPFGIAGWTAGDRSVLVYSEYDVWRIAPDGSSTERLTTGRADSVRHRYVDLTDEAPGEADVIPRNEPIYWDLYDEWTEEHGYARASALTDTPERMVWKPKMMTGLTKADSADVYAYRVEDFEDSPDYFRAGPQLADARQVTSTNPFQDDYAWGRSDLVAFRNANGKKLQGALFYPADYDPDKTYPMITYIYETRSPQARSYVVPTREHPYNTTTFTQEGYIVFQPDITYRPRDPGNSAVDAIVPGVQAAAEAAAVDTSRIGLVGHSWGGYQTTFTATQTDLFATAVAGAPLTNMVSMYNSIYWRSGGTDARIFEISQGRMGVPPWEDMDAYVANSPLHHIESLNTPFLMAFGTDDGAVEFNQGVEFYNAARRADKELAFLVYDGENHGISRKEKNTVDYRNRVLEWFDHYLKGDEGPAWIQDGVPFLEQVERQEEAAVSR
protein production: failed

MSTDVSSAENEGGATVRTARVPKYYRLKKHLLDMTRTQTPGTPVPPERTLAAEFDTSRTTVRQALQELVVEGRLERIQGKGTFVAKPKVSQALQLTSYTEDMRAQGLEPTSQLLDIGYITADDRLAGLLDITAGGRVLRIERLRMANGEPMAIETTHLSAKRFPALRRSLVKYTSLYTALAEVYDVHLAEAEETIETSLATPREAGLLGTDVGLPMLMLSRHSQDRTGQPVEWVRSVYRGDRYKFVARLKRPQD
protein production: not failed

ALVNIVVTNRCDLSCFYCFFYAERAGYIYEPSIEQIKFMVRQVARQRQGSDVHVNIQITGGEPTVREDLVDVVKAIREAGAHYIQLNTNGINVARRYLDNPPGAIDYVRSLREAGVSVVYMSFDGVTPKVNWKNHYEAPFALKAFQEGGLDNVVLVPTVIRTINDHEVGDIIRFAGKHIDVVRGVNFQPVSLTGM
protein production: failed

MPANPRILETMSQLFVSFPHCATLGFEYVGTDGRKPTLKLQWREDLVGNPATGILHGGVITSLVDTCSAIAVTAHLPELETIATLDLRIDYLKSATPGKAIHCTAECYRLASQIAFTRAVCYHDNPADPIAHGVATFMRESSLEHHHHHH
protein production: failed

MEQIITDFISKWGYTAIFILILLENVLPVVPSEIILTFAGLLSVKSHLSIWTLLIIATIASFIGLLILYYICRLISEEKLYRFVDRHGKWMKLKSKDLKRANDWFKKYGAWAVFLCRFVPVLRVLITIPAGINRMNVIQFTTLSLIGTTIWNFALILLGRLLSDSFDALMNGIHTYSRIMYVIIIIAVIYFVIRYLMKRRRSVK
protein production: failed

MNRPAMPFANTVPGFLPFLNDEKGLRQESQQRYLYTLRPFEAYLNRGGIALSGLEPAHISRFLEERAKTLHKAGMRDTAGALRIFLRYLHREGIVATDLVRSVPRGRIYRQASIPRALEHHHHHH
protein production: failed

MTELNFHLLPIISDRFTTTTTTSPSFSSHSSSSSSLLSFTKRRRKHQPLVSSIRMEQSRSRNRKDKVVVILGATGAGKSRLSVDLATRFPSEIINSDKIQVYEGLEITTNQITLQDRRGVPHHLLGVINPEHGELTAGEFRSAASNVVKEITSRQKVPIIAGGSNSFVHALLAQRFDPKFDPFSSGSCLISSDLRYECCFIWVDVSETVLYEYLLRRVDEMMDSGMFEELSRFYDPVKSGLETRFGIRKAIGVPEFDGYFKEYPPEKKMIKWDALRKAAYDKAVDDIKRNTWTLAKRQVKKIEMLKDAGWEIERVDATASFKAVMMKSSSEKKWRENWEEQVLEPSVKIVKRHLVQN
protein production: failed
